According to patent publication US20080063657A1 (VAXINNATE, published 2008):

Molecular target: TLR5 (UniProt O60602 21-858)
Experiment: cell-based or functional assay

Chain of TLR5 (O60602 21-858 limits assumed): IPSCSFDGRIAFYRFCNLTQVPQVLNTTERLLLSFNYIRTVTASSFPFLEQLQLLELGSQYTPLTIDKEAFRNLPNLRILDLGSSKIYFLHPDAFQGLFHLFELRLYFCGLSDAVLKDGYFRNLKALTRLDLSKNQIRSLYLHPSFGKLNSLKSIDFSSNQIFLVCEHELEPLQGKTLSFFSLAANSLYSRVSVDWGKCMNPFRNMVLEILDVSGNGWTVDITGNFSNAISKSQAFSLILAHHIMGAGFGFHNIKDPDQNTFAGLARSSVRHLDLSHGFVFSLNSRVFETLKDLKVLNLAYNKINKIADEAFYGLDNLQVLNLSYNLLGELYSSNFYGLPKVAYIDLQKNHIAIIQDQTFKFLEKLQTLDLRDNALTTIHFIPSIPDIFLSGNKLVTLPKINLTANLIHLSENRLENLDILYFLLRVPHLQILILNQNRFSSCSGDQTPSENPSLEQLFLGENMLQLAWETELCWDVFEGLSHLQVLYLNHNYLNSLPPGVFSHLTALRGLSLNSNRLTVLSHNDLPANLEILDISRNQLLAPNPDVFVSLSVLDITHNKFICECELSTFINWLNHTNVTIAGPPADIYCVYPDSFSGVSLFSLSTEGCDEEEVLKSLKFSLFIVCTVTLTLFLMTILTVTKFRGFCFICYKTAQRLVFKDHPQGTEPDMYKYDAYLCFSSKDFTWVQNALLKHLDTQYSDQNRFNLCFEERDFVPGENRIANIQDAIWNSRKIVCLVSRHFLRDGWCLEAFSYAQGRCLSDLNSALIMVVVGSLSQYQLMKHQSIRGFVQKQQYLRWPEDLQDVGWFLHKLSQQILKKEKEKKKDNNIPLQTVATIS

B1: STF2.EIII+ fusion protein (other)
chain: MAQVINTNSLSLLTQNNLNKSQSALGTAIERLSSGLRINSAKDDAAGQAIANRFTANIKGLTQASRNANDGISIAQTTEGALNEINNNLQRVRELAVQSANSTNSQSDLDSIQAEITQRLNEIDRVSGQTQFNGVKVLAQDNTLTIQVGANDGETIDIDLKQINSQTLGLDSLNVQKAYDVKDTAVTTKAYANNGTTLDVSGLDDAAIKAATGGTNGTASVTGGAVKFDADNNKYFVTIGGFTGADAAKNGDYEVNVATDGTVTLAAGATKTTMPAGATTKTEVQELKDTPAVVSADAKNALIAGGVDATDANGAELVKMSYTDKNGKTIEGGYALKAGDKYYAADYDEATGAIKAKTTSYTAADGTTKTAANQLGGVDGKTEVVTIDGKTYNASKAAGHDFKAQPELAEAAAKTTENPLQKIDAALAQVDALRSDLGAVQNRFNSAITNLGNTVNNLSEARSRIEDSDYATEVSNMSRAQILQQAGTSVLAQANQVPQNVLSLLRKGNSKLEGQLEFPRTSMEKLQLKGTTYGVCSKAFKFLGTPADTGHGTVVLELQYTGTDGPCKVPISSVASLNDLTPVGRLVTVNPFVSVATANAKVLIELEPPFGDSYIVVGRGEQQINHHWHKSGSSIGK
- TLR-5 EC50 (IL-8 in supernatant of HEK293 cells, ELISA), batch 052: > 5 µg/mL
- TLR-5 EC50 (IL-8 in supernatant of HEK293 cells, ELISA), batch 054: 1.2 µg/mL
- TLR-5 EC50 (IL-8 in supernatant of HEK293 cells, ELISA), batch 057: 0.198 µg/mL
